The results in this text go back to the RNAGym collection of RNA variant scans (doi:10.7554/elife.80360).

B1: Hairpin Ribozyme (parent)
chain: GUCCUCUUUCACGUGCGCGUGAAAGAGAGAAGUGAACCAGAGAAACACACGUUGUGGUAUAUUACCUGGUA

The variants in the data set derive from B1. Put plainly: self-cleavage, relative activity (ratio to wild type); higher = more cleavage; co-transcriptional.
As to GUCCGCUUUCACGUGCGCGUGAAAGAGAGAAGUGAACCAGAGAAACACACAUUGUGGUAUAUUACCUGGUA, the self-cleavage turned out to be 0.377.
In the case of GUCCGCUUUCACGUGCGCGUGAAAGAGAGAAGUGAACCAGAGAAACACACCUUGUGGUAUAUUACCUGGUA, the self-cleavage stood at 0.221.
Take GUCCGCUUUCACGUGCGAGUGAAAGAGAGAAGUGAACCAGAGAAACACACGUUGUGGUAUAUUACCUGGUA: the self-cleavage came to 0.37.
Take GUCCGCUUUCACGUGCGCGUGAAAGAGAGAAGCGAACCAGAGAAACACACGUUGUGGUAUAUUACCUGGUA: the self-cleavage was 0.0793.
Take GUCCGCUUUCACGUGCGCGUGAAAGAGAGAAGAGAACCAGAGAAACACACGUUGUGGUAUAUUACCUGGUA: the self-cleavage worked out at 0.17.
GUCCGCUUUCACGUGCGCGUGAAAGAGAGAAGUGAACCAGAGAAACACACGUUGUGGUAUAUUACGUGGUA: the self-cleavage worked out at 0.127.
As to GUCCGCUUUUACGUGCGCGUGAAAGAGAGAAGUGAACCAGAGAAACACACGUUGUGGUAUAUUACCUGGUA, the self-cleavage worked out at 0.317.
As for GUCCGCUUUCACGUGCGCGUGAAAGACAGAAGUGAACCAGAGAAACACACGUUGUGGUAUAUUACCUGGUA, the figure is 0.0408.
Under GUCCUAUUUCACGUGCGCGUGAAAGAGAGAAGUGAUCCAGAGAAACACACGUUGUGGUAUAUUACCUGGUA stands 0.384; under GUCCUAUUUCACGUGCGCGUGAAAGAGAGAAGUGAGCCAGAGAAACACACGUUGUGGUAUAUUACCUGGUA, 0.595.
Turning to GUCCUAUUUCACGUGCGCGUGAAAGAGAGAAGUGACCCAGAGAAACACACGUUGUGGUAUAUUACCUGGUA, the self-cleavage was found to be 0.393.
As for GUCCGCUUUCACGUGCGCCUGAAAGAGAGAAGUGAACCAGAGAAACACACGUUGUGGUAUAUUACCUGGUA, the figure is 0.202.
Turning to GUCCGCUUUCACGUGCGCGUGAAAGAGAGAAGUGAACCAGAGAAACUCACGUUGUGGUAUAUUACCUGGUA, the self-cleavage turned out to be 0.0832.
Consider GUCCGCUUUCACGUGCGCGUGAAAGAGAGAAGUGAACCAGAGAAACACACGUUGUGGUAUAUUACCUGGUG, for which the self-cleavage came to 0.207.
In the case of GUCCGCUUUCACGUGCGCGUGAAAGAGAGAAGUGAACCAGAGAAACACAAGUUGUGGUAUAUUACCUGGUA, the self-cleavage is 0.184.
For the variant GUCCGCUUUCACGUGCGCGUGAAAGAGAGAAGUGAACCAGAGAAACACAGGUUGUGGUAUAUUACCUGGUA, the self-cleavage was 0.165.
On to GUCCGCUUUCACGUGCGCGUGAAAGAGAGAAGUGAACCAGAGAAACACACGUUGUAGUAUAUUACCUGGUA, for which the self-cleavage was found to be 0.0193.
Consider GUCCGCUUUCACGUGCGCGUGAAAGAGAGAAGUGAACCAGAGAAACACACGUUGUCGUAUAUUACCUGGUA, for which the self-cleavage came out at 0.124.
Regarding GUCCUAUUUCACGUGCGCGUGAAAGAGAGAUGUGAACCAGAGAAACACACGUUGUGGUAUAUUACCUGGUA, the self-cleavage came out at 0.0881.
GUCCUAUUUCACGUGCGCGUGAAAGAGAGAGGUGAACCAGAGAAACACACGUUGUGGUAUAUUACCUGGUA: the self-cleavage was 0.446.
Regarding GUCCUAUUUCACGUGCGCGUGAAAGAGAGACGUGAACCAGAGAAACACACGUUGUGGUAUAUUACCUGGUA, the self-cleavage came out at 0.1.
Under GUCCGCUUUCACGUGCGCGUGAAAGAGAGAAGUGAACCAGAGAAACACACGUUGUGGUAUAUAACCUGGUA stands 0.127; under GUCCGCUUUCACGUGCGCGUGAAAGAGAGAAGUGAACCAGAGAAACACACGUUGUGGUAUAUGACCUGGUA, 0.0714.
Turning to GUCCGAUUUCACGUGCGCGUGAAAGAGAGAAGUGAACCAGAGAAACACACGUUGUGGUAUAUUACCUGGUA, the self-cleavage came out at 0.321.
For GUCCGUUUUCACGUGCGCGUGAAAGAGAGAAGUGAACCAGAGAAACACACGUUGUGGUAUAUUACCUGGUA, the self-cleavage was 0.151.
As for GUCCGGUUUCACGUGCGCGUGAAAGAGAGAAGUGAACCAGAGAAACACACGUUGUGGUAUAUUACCUGGUA, the self-cleavage was 0.224.
As for GUCCUAUUUCACGUGCGCGUGAAAGAGAGAAGUGAACCGGAGAAACACACGUUGUGGUAUAUUACCUGGUA, the figure is 0.243; as for GUCCGCUUUCACGUGCGCGUGAAAGAGAGAAGUGAACCAGAGAAACACACGUUGUGGUAUAUUACCUGGGA, 0.354.
Under GUCCGCUUGCACGUGCGCGUGAAAGAGAGAAGUGAACCAGAGAAACACACGUUGUGGUAUAUUACCUGGUA stands 0.147.
Consider GUCCGCUUACACGUGCGCGUGAAAGAGAGAAGUGAACCAGAGAAACACACGUUGUGGUAUAUUACCUGGUA, for which the self-cleavage stood at 0.346.
For GUCCUAUUUCACGUGCGCGUGAAAGAGAGGAGUGAACCAGAGAAACACACGUUGUGGUAUAUUACCUGGUA, the self-cleavage was 0.131.
Take GUCCGCUUUCACGUGCGCGUGAAAGAGACAAGUGAACCAGAGAAACACACGUUGUGGUAUAUUACCUGGUA: the self-cleavage was determined as 0.0639.
Under GUCCGCUAUCACGUGCGCGUGAAAGAGAGAAGUGAACCAGAGAAACACACGUUGUGGUAUAUUACCUGGUA stands 0.126; under GUCCGCUUUCACGUGCGCGUGAAAGAGAGAAGUGAACCAGAGAAACACACGCUGUGGUAUAUUACCUGGUA, 0.596; under GUCCGCUUUCAGGUGCGCGUGAAAGAGAGAAGUGAACCAGAGAAACACACGUUGUGGUAUAUUACCUGGUA, 0.239.
Under GUCCGCUUUCAUGUGCGCGUGAAAGAGAGAAGUGAACCAGAGAAACACACGUUGUGGUAUAUUACCUGGUA stands 0.529; under GUCCGCUUUCACGUGGGCGUGAAAGAGAGAAGUGAACCAGAGAAACACACGUUGUGGUAUAUUACCUGGUA, 0.146; under GUCCGCUUUCACGUGUGCGUGAAAGAGAGAAGUGAACCAGAGAAACACACGUUGUGGUAUAUUACCUGGUA, 0.269.
